Residue numbers refer to the chain shown, from its start. In names and notes the source's numbering stands.
T1: human FcγRIIb extracellular domain with C-terminal His tag (human, UniProt P31994 43-217)
T1 construct: extracellular domain; For crystals it was expressed with kifunensine and trimmed with Endo F1; also called FcgRIIb; FcγRIIb extracellular region
T1 sequence (looked up): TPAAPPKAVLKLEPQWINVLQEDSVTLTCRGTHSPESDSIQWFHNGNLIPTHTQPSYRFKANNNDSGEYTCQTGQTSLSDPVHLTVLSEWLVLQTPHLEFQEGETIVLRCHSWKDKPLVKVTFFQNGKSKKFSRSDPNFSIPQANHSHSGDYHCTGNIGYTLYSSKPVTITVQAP

T2: human FcγRIIa type H extracellular domain with C-terminal His tag (human, UniProt P12318 34-217)
T2 construct: extracellular domain; also called FcgRIIaH; FcγRIIa H
T2 sequence (looked up): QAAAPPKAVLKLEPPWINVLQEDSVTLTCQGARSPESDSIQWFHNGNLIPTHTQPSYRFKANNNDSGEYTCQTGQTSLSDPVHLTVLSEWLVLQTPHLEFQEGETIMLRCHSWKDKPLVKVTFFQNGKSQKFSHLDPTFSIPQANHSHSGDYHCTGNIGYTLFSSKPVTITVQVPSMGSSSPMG

B1: IL6R-BP423/IL6R-L (antibody, human IgG1, kappa)
heavy: QVQLQESGPGLVKPSETLSLTCAVSGHSISHDHAWSWVRQPPGEGLEWIGFISYSGITNYNPSLQGRVTISRDNSKNTLYLQMNSLRAEDTAVYYCARSLARTTAMDYWGEGTLVTVSSASTKGPSVFPLAPSSKSTSGGTAALGCLVKDYFPEPVTVSWNSGALTSGVHTFPAVLQSSGLYSLSSVVTVPSSSLGTQTYICNVNHKPSNTKVDKKVEPKSCDKTHTCPPCPAPDLLGDDSVFLFPPKPKDTLMISRTPEVTCVVVDVAEEDGEVKFNWYVDGVEVHNAKTKPREEQYNSTYRVVSVLTVLHQDWLNGKEYKCKVSNKALPRPIEKTISKAKGQPREPQVYTLPPSRDELTKNQVSLTCLVKGFYPSDIAVEWESNGQPENNYKTTPPVLDSDGSFFLYSKLTVDKSRWQQGNVFSCSVMHEALHNHYTQESLSLSP
light: not shown
B2: IL6R-BP498/IL6R-L (antibody, human IgG1, kappa)
heavy: B1 heavy with V266I, P398L
light: not shown
B3: IL6R-BP490/IL6R-L (antibody, human IgG1, kappa)
heavy: B1 heavy with D235E, V266I
light: not shown
B4: IL6R-BP499/IL6R-L (antibody, human IgG1, kappa)
heavy: B1 heavy with V266I, Y298D, P398L
light: not shown
B5: IL6R-BP510/IL6R-L (antibody, human IgG1, kappa)
heavy: B1 heavy with D235E, V266I, E274P
light: not shown
notes: also called IL6R-BP510/L6R-L
B6: IL6R-BP511/IL6R-L (antibody, human IgG1, kappa)
heavy: B1 heavy with D235E, V266I, E274P, Y298D
light: not shown
B7: IL6R-BP488/IL6R-L (antibody, human IgG1, kappa)
heavy: B1 heavy with V266I, Y298D
light: not shown
B8: IL6R-BP491/IL6R-L (antibody, human IgG1, kappa)
heavy: B1 heavy with D235E, V266I, Y298D
light: not shown
B9: IL6R-BP487/IL6R-L (antibody, human IgG1, kappa)
heavy: B1 heavy with V266I, P398M
light: not shown
B10: IL6R-BP429/IL6R-L (antibody, human IgG1, kappa)
heavy: B1 heavy with V266I, A269G
light: not shown
B11: IL6R-BP503/IL6R-L (antibody, human IgG1, kappa)
heavy: B1 heavy with V266I, Y298D, A329G, P398M
light: not shown
B12: IL6R-BP494/IL6R-L (antibody, human IgG1, kappa)
heavy: B1 heavy with D235E, Y298D
light: not shown
B13: IL6R-BP437/IL6R-L (antibody, human IgG1, kappa)
heavy: B1 heavy with D235E, Y298D, I334T
light: not shown
B14: IL6R-BP445/IL6R-L (antibody, human IgG1, kappa)
heavy: B1 heavy with V266I
light: not shown
B15: IL6R-BP179/IL6R-L (antibody, human IgG1, kappa, name in EU numbering)
heavy: B1 heavy with D235E, A269S, E270H, K328A, R332K
light: not shown
B16: IL6R-BP180/IL6R-L (antibody, human IgG1, kappa, name in EU numbering)
heavy: B1 heavy with D235E, A269S, E270H, R332K
light: not shown
B17: IL6R-BP199/IL6R-L (antibody, human IgG1, kappa, name in EU numbering)
heavy: B1 heavy with D239G, A269S, E270H, G273P, K328A
light: not shown
B18: IL6R-BP196/IL6R-L (antibody, human IgG1, kappa, name in EU numbering)
heavy: B1 heavy with D235E, L236Y, D239G, A269S, E270D, K328A, R332K
light: not shown
B19: IL6R-BP206/IL6R-L (antibody, human IgG1, kappa, name in EU numbering)
heavy: B1 heavy with D239G, A269S, E270H
light: not shown
B20: IL6R-BP185/IL6R-L (antibody, human IgG1, kappa, name in EU numbering)
heavy: B1 heavy with L236Y, A269S, E270H, K328A, R332K
light: not shown
B21: IL6R-BP203/IL6R-L (antibody, human IgG1, kappa, name in EU numbering)
heavy: B1 heavy with D235E, A269S, E270H
light: not shown
B22: IL6R-BP209/IL6R-L (antibody, human IgG1, kappa, name in EU numbering)
heavy: B1 heavy with D235E, A269S, E270D, K328A
light: not shown
B23: IL6R-BP184/IL6R-L (antibody, human IgG1, kappa, name in EU numbering)
heavy: B1 heavy with D239G, A269S, E270H, R332K
light: not shown
B24: IL6R-BP194/IL6R-L (antibody, human IgG1, kappa, name in EU numbering)
heavy: B1 heavy with L236Y, A269S, E270D, K328A, R332K
light: not shown
B25: IL6R-BP207/IL6R-L (antibody, human IgG1, kappa, name in EU numbering)
heavy: B1 heavy with D239G, A269S, E270H, G273P
light: not shown
B26: IL6R-BP213/IL6R-L (antibody, human IgG1, kappa, name in EU numbering)
heavy: B1 heavy with D239G, A269S, E270D
light: not shown
B27: IL6R-BP198/IL6R-L (antibody, human IgG1, kappa, name in EU numbering)
heavy: B1 heavy with L236Y, D239G, A269S, E270D, K328A, R332K
light: not shown
B28: IL6R-BP187/IL6R-L (antibody, human IgG1, kappa, name in EU numbering)
heavy: B1 heavy with D235E, L236Y, D239G, A269S, E270H, K328A, R332K
light: not shown
B29: IL6R-BP192/IL6R-L (antibody, human IgG1, kappa, name in EU numbering)
heavy: B1 heavy with D239G, A269S, E270D, Y298D, R332K
light: not shown
B30: IL6R-BP189/IL6R-L (antibody, human IgG1, kappa, name in EU numbering)
heavy: B1 heavy with D235E, A269S, E270D, K328A, R332K
light: not shown
B31: IL6R-BP186/IL6R-L (antibody, human IgG1, kappa, name in EU numbering)
heavy: B1 heavy with L236Y, A269S, E270H, Y298D, K328A, R332K
light: not shown
B32: IL6R-BP183/IL6R-L (antibody, human IgG1, kappa, name in EU numbering)
heavy: B1 heavy with L236Y, D239G, A269S, E270H, K328A, R332K
light: not shown
B33: G237W (antibody, human IgG1, kappa)
heavy chain: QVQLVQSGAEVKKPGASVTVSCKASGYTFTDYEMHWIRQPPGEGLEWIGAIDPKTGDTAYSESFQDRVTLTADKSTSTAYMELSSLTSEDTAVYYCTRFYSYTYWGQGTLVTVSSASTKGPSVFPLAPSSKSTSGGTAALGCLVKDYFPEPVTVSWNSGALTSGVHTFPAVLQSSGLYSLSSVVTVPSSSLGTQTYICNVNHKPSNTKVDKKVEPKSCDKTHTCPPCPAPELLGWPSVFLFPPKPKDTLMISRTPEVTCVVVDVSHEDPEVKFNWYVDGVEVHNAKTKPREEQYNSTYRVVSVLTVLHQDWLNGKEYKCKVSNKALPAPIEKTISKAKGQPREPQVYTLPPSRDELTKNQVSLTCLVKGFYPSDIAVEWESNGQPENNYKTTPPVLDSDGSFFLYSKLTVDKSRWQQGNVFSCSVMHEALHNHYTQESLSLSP
light chain: DIVMTQSPLSLPVTPGEPASISCQASESLVHSNRNTYLHWYLQKPGQSPQLLIYKVSNRFSGVPDRFSGSGSGTDFTLKISRVEAEDVGVYYCSQNTHVPPTFGQGTKVEIERTVAAPSVFIFPPSDEQLKSGTASVVCLLNNFYPREAKVQWKVDNALQSGNSQESVTEQDSKDSTYSLSSTLTLSKADYEKHKVYACEVTHQGLSSPVTKSFNRGEC
notes: also called GpH7-B3 with G237W / GpL16-k0 (no P238D)

These binders were tested against T1, human FcγRIIb extracellular domain with … (assay: SPR).

| binding result | Binder |
| --- | --- |
| binds | B1 |
| binds | B2 |
| binds | B3 |
| binds | B4 |
| binds | B5 |
| binds | B6 |
| binds | B7 |
| binds | B8 |
| binds | B9 |
| binds | B10 |
| binds | B11 |
| binds | B12 |
| binds | B13 |
| binds | B14 |

The binders below were run against T3, human FcγRIa extracellular domain with C-terminal His tag (human, UniProt P12314 16-292) (assay: SPR; IL6R-BF648/IL6R-L=100).
T3 construct: Whole entry named; also called FcgRIa; FcgIa
Experimental: (§1) IL6R-L was utilized as the common antibody L chain for all of the antibodies, the antibodies were expressed and purified according to the method of Reference Example 1, and binding to each of the FcγRs (FcγRIa, FcγRIIa type H, FcγRIIa type R, FcγRIIb, and FcγRIIIa type V) was comprehensively evaluated by the method of Reference Example 2.
(§2) Relative binding activities were calculated for the results of analyzing interactions with the respective FcγRs according to the following method.

T3 sequence (P12314 16-292): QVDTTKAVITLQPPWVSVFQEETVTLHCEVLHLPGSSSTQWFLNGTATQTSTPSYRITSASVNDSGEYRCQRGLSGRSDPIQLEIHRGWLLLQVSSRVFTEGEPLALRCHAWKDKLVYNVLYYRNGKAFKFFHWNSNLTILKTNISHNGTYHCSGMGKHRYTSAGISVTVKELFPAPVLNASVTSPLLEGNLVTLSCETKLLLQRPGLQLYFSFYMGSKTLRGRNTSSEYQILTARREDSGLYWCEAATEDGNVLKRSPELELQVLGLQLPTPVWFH

| relative binding activity | Binder |
| --- | --- |
| 39 | B15 |
| 29 | B16 |
| 112 | B17 |
| 89 | B18 |
| 101 | B19 |
| 47 | B20 |
| 35 | B21 |
| 68 | B22 |
| 96 | B23 |
| 69 | B24 |
| 74 | B25 |
| 118 | B26 |
| 104 | B27 |
| 68 | B28 |
| 109 | B29 |
| 56 | B30 |
| 43 | B31 |
| 83 | B32 |

These binders were tested against T2, human FcγRIIa type H extracellular … (assay: SPR; IL6R-BF648/IL6R-L=100).
Experimental: as §1, §2

| relative binding activity | Binder |
| --- | --- |
| 226 | B15 |
| 203 | B16 |
| 116 | B17 |
| 195 | B18 |
| 123 | B19 |
| 446 | B20 |
| 255 | B21 |
| 267 | B22 |
| 131 | B23 |
| 395 | B24 |
| 103 | B25 |
| 123 | B26 |
| 188 | B27 |
| 205 | B28 |
| 122 | B29 |
| 183 | B30 |
| 368 | B31 |
| 191 | B32 |

The binders below were run against T1, human FcγRIIb extracellular domain with … (assay: SPR; IL6R-BF648/IL6R-L=100).
Experimental: as §1, §2

| relative binding activity | Binder |
| --- | --- |
| 177 | B15 |
| 179 | B16 |
| 144 | B17 |
| 157 | B18 |
| 168 | B19 |
| 179 | B20 |
| 185 | B21 |
| 186 | B22 |
| 171 | B23 |
| 178 | B24 |
| 124 | B25 |
| 169 | B26 |
| 164 | B27 |
| 157 | B28 |
| 172 | B29 |
| 177 | B30 |
| 175 | B31 |
| 164 | B32 |

Each binder was assayed against T4, human FcγRIIIa type V extracellular domain with C-terminal His tag (human, UniProt P08637 17-208) (assay: SPR; IL6R-BF648/IL6R-L=100).
T4 construct: extracellular domain; also called FcgRIIIaV; FcγRIIIaV
Experimental: as §1, §2

T4 sequence (P08637 17-208 F176V): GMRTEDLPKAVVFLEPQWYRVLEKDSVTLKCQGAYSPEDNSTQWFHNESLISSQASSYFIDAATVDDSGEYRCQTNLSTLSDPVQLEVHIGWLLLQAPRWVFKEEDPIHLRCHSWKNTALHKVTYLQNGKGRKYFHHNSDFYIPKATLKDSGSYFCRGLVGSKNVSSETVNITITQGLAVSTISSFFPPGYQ

| relative binding activity | Binder |
| --- | --- |
| 125 | B15 |
| 100 | B16 |
| 103 | B17 |
| 137 | B18 |
| 92 | B19 |
| 191 | B20 |
| 88 | B21 |
| 153 | B22 |
| 106 | B23 |
| 249 | B24 |
| 97 | B25 |
| 100 | B26 |
| 157 | B27 |
| 124 | B28 |
| 118 | B29 |
| 141 | B30 |
| 143 | B31 |
| 113 | B32 |

The binders below were run against T1, human FcγRIIb extracellular domain with … (assay: SPR (Biacore): amount of FcγRIIb bound per captured antibody, relative to the pre-altered antibody GpH7-B3/GpL16-k0 = 100 (Reference Examples 2, 3 and 6)).

| binding result | Binder |
| --- | --- |
| binds | B33 |

— US20150299296A1 (Chugai, published 2015)
